# The RNAGym collection of RNA variant scans (doi:10.7554/elife.80360)
# B1: Twister Ribozyme (parent)
# chain: AACACUGCCAAUGCCGGUCCCAAGCCCGGAUAAAAGUGGAGGGGGCGG
# Variants of: B1
# Experiment: self-cleavage, relative activity (ratio to wild type); higher = more cleavage; co-transcriptional
row,Variant,self-cleavage
1,AACACUGCCAAUGCCGGUACCAAGCCCGGAUAAAACUGGAGGGGGCGG [C19A G36C],0.0909
2,AACACUGCCAAUGCCGGUACCAAGCCCGGAUAAAAUUGGAGGGGGCGG [C19A G36U],0.0959
3,AACACUGCCAAUGCCGGUACCAAGCCCGGAUAAAAGUCGAGGGGGCGG [C19A G38C],0.0851
4,AACACUGCCAAUGCCGGUACCAAGCCCGGAUAAAAGUGUAGGGGGCGG [C19A G39U],0.124
5,AACACUGCCAAUGCCGGUACCAAGCCCGGAUAAAAGUGGAAGGGGCGG [C19A G41A],0.0916
6,AACACUGCCAAUGCCGGUACCAAGCCCGGAUAAAAGUGGAGGAGGCGG [C19A G43A],0.355
7,AACACUGCCAAUGCCGGUACCAAGCCCGGAUAAAAGUGGAGGUGGCGG [C19A G43U],0.732
8,AACACUGCCAAUGCCGGUACCAAGCCCGGAUAAAAGUGGAGGGCGCGG [C19A G44C],0.746
9,AACACUGCCAAUGCCGGUACCAAGCCCGGAUAAAAGUGGAGGGUGCGG [C19A G44U],0.679
10,AACACUGCCAAUGCCGGUACCAAGCCCGGAUAAAAGUGGAGGGGCCGG [C19A G45C],0.233
11,AACACUGCCAAUGCCGGUACCAAGCCCGGAUAAAAGUGGAGGGGGCUG [C19A G47U],0.131
12,AACACUGCCAAUGCCGGUACCAAGCCCGGAUAAAAGUGGAGGGGGCGA [C19A G48A],0.161
13,AACACUGCCAAUGCCGGUACCAAGCCCGGAUAAAAGUGGAGGGGGCGC [C19A G48C],0.149
14,AACACUGCCAAUGCCGGUACCAAGCCCGGAAAAAAGUGGAGGGGGCGG [C19A U31A],0.219
15,AACACUGCCAAUGCCGGUACCAAGCCCGGACAAAAGUGGAGGGGGCGG [C19A U31C],0.375
16,AACACUGCCAAUGCCGGUACCAAGCCCGGAUAAAAGAGGAGGGGGCGG [C19A U37A],0.0721
17,AACACUGCCAAUGCCGGUGCCAAGCCCGGAUAAAAGUGGAGGGGGCGG [C19G],0.485
18,AACACUGCCAAUGCCGGUGCCCAGCCCGGAUAAAAGUGGAGGGGGCGG [C19G A22C],0.219
19,AACACUGCCAAUGCCGGUGCCUAGCCCGGAUAAAAGUGGAGGGGGCGG [C19G A22U],0.0871
20,AACACUGCCAAUGCCGGUGCCAUGCCCGGAUAAAAGUGGAGGGGGCGG [C19G A23U],0.11
21,AACACUGCCAAUGCCGGUGCCAAGCCCGGGUAAAAGUGGAGGGGGCGG [C19G A30G],0.468
22,AACACUGCCAAUGCCGGUGCCAAGCCCGGUUAAAAGUGGAGGGGGCGG [C19G A30U],0.456
23,AACACUGCCAAUGCCGGUGCCAAGCCCGGAUCAAAGUGGAGGGGGCGG [C19G A32C],0.386
24,AACACUGCCAAUGCCGGUGCCAAGCCCGGAUUAAAGUGGAGGGGGCGG [C19G A32U],0.287
25,AACACUGCCAAUGCCGGUGCCAAGCCCGGAUAGAAGUGGAGGGGGCGG [C19G A33G],0.175
26,AACACUGCCAAUGCCGGUGCCAAGCCCGGAUAUAAGUGGAGGGGGCGG [C19G A33U],0.187
27,AACACUGCCAAUGCCGGUGCCAAGCCCGGAUAACAGUGGAGGGGGCGG [C19G A34C],0.0815

row,Variant,self-cleavage
1,AACACUGCCAAUGCCGGUGCCAAGCCCGGAUAAACGUGGAGGGGGCGG [C19G A35C],0.393
2,AACACUGCCAAUGCCGGUGCCAAGCCCGGAUAAAUGUGGAGGGGGCGG [C19G A35U],0.34
3,AACACUGCCAAUGCCGGUGCCAAGCCCGGAUAAAAGUGGCGGGGGCGG [C19G A40C],0.132
4,AACACUGCCAAUGCCGGUGGCAAGCCCGGAUAAAAGUGGAGGGGGCGG [C19G C20G],0.0478
5,AACACUGCCAAUGCCGGUGCGAAGCCCGGAUAAAAGUGGAGGGGGCGG [C19G C21G],0.0223
6,AACACUGCCAAUGCCGGUGCCAAGACCGGAUAAAAGUGGAGGGGGCGG [C19G C25A],0.0881
7,AACACUGCCAAUGCCGGUGCCAAGCUCGGAUAAAAGUGGAGGGGGCGG [C19G C26U],0.0735
8,AACACUGCCAAUGCCGGUGCCAAGCCUGGAUAAAAGUGGAGGGGGCGG [C19G C27U],0.131
9,AACACUGCCAAUGCCGGUGCCAAGCCCGGAUAAAAGUGGAGGGGGGGG [C19G C46G],0.165
10,AACACUGCCAAUGCCGGUGCCAAGCCCGGAUAAAAGUGGAGGGGGUGG [C19G C46U],0.359
11,AACACUGCCAAUGCCGGUGCCAAUCCCGGAUAAAAGUGGAGGGGGCGG [C19G G24U],0.0534
12,AACACUGCCAAUGCCGGUGCCAAGCCCAGAUAAAAGUGGAGGGGGCGG [C19G G28A],0.211
13,AACACUGCCAAUGCCGGUGCCAAGCCCUGAUAAAAGUGGAGGGGGCGG [C19G G28U],0.212
14,AACACUGCCAAUGCCGGUGCCAAGCCCGAAUAAAAGUGGAGGGGGCGG [C19G G29A],0.258
15,AACACUGCCAAUGCCGGUGCCAAGCCCGGAUAAAAUUGGAGGGGGCGG [C19G G36U],0.099
16,AACACUGCCAAUGCCGGUGCCAAGCCCGGAUAAAAGUCGAGGGGGCGG [C19G G38C],0.152
17,AACACUGCCAAUGCCGGUGCCAAGCCCGGAUAAAAGUUGAGGGGGCGG [C19G G38U],0.0929
18,AACACUGCCAAUGCCGGUGCCAAGCCCGGAUAAAAGUGGAGCGGGCGG [C19G G42C],0.139
19,AACACUGCCAAUGCCGGUGCCAAGCCCGGAUAAAAGUGGAGUGGGCGG [C19G G42U],0.0912
20,AACACUGCCAAUGCCGGUGCCAAGCCCGGAUAAAAGUGGAGGAGGCGG [C19G G43A],0.242
21,AACACUGCCAAUGCCGGUGCCAAGCCCGGAUAAAAGUGGAGGCGGCGG [C19G G43C],0.711
22,AACACUGCCAAUGCCGGUGCCAAGCCCGGAUAAAAGUGGAGGGAGCGG [C19G G44A],0.351
23,AACACUGCCAAUGCCGGUGCCAAGCCCGGAUAAAAGUGGAGGGGCCGG [C19G G45C],0.231
24,AACACUGCCAAUGCCGGUGCCAAGCCCGGAUAAAAGUGGAGGGGUCGG [C19G G45U],0.174
25,AACACUGCCAAUGCCGGUGCCAAGCCCGGAUAAAAGUGGAGGGGGCUG [C19G G47U],0.138
26,AACACUGCCAAUGCCGGUGCCAAGCCCGGAUAAAAGUGGAGGGGGCGA [C19G G48A],0.167
27,AACACUGCCAAUGCCGGUGCCAAGCCCGGAAAAAAGUGGAGGGGGCGG [C19G U31A],0.346
